This note sets out measurements from patent publication US20180334496A1 (KODIAK SCIENCES, published 2018).

“And” between values parts separate entries of the source, which are not always exact repeats. Equal entries are not always repeated. Where two headings read alike, the source gives them in different places.

Broadly, the Kd is the constant that tells how readily two partners part at equilibrium. What is called kon is the rate constant with which the complex forms. For orientation: koff means a measure of how fast the partners let go of each other.

Experiment [1] addresses T1, human Complement Factor D (serum purified) (human, UniProt P00746 26-253). Briefly: cell-based or functional assay.
The target in experiment [2] is T1, human Complement Factor D (serum …). Briefly: KinExA in solution, 37 degrees; free CFD captured on OG1931 beads and detected with KCD004-A647. On the technique in general: A kinetic exclusion assay measures how much of one partner remains free in solution.
Experiment [3] shares this target. Briefly: SPR (Biacore), antibody captured on Protein A chip, serum purified human CFD as analyte, 25 degrees.
The target of experiment [4] is T2, serum purified human Complement Factor D (human, UniProt P00746 26-253).
T2 construct: Serum purified protein flowed over the captured antibodies; also called CFD; human CFD
The experiment is described as follows: SPR Biacore, antibody on protein A chip, single cycle kinetics, 25 C.

Experiment [5] addresses T2, serum purified human Complement Factor D. The experiment is described as follows: SPR Biacore, antibody on protein A chip, single cycle kinetics, 37 C. (In SPR one partner is held on a chip, and binding of the other changes the refractive index at the surface.)
Experiment [6] shares this target. The experiment is described as follows: SPR Biacore, antibody on protein A chip, single cycle kinetics, 25 C. This is another data set of the same source.
Experiment [7] shares this target. Briefly: SPR Biacore, antibody on protein A chip, single cycle kinetics, 37 C. This is another data set of the same source.
In experiment [8] the target is T3, recombinant cynomologus Complement Factor D (cynomolgus).
T3 construct: also called cyCFD; cyno CFD
Briefly: SPR Biacore, antibody on protein A chip, cyCFD in flow, single cycle kinetics, 37 C.

Experiment [9] concerns the target T2, serum purified human Complement Factor D. Briefly: SPR Biacore T200, biotinylated OG1965 captured on neutravidin CM5 chip, single cycle kinetics, 25 C.
The target is the same in experiment [10]. The experiment is described as follows: SPR Biacore T200, biotinylated OG1965 captured on neutravidin CM5 chip, single cycle kinetics, 37 C.
In experiment [11] the target is T4, human Complement Factor D (CFD), purified from human serum (human, UniProt P00746 26-253).
T4 construct: serum purified (CompTech A136); also called serum purified CFD; hCFD-Comptech
The experiment is described as follows: SPR Biacore, full-length IgG captured on protein A chip, serum purified CFD.

Experiment [12] addresses T5, recombinant human CFD mutant 1 (R157A, R207A), His-tagged (human, UniProt P00746 26-253).
T5 construct: positions are linear positions in the mature protein; also called rhCFD-mut1-His; Mut1
Briefly: ELISA. On the technique in general: An ELISA detects its analyte on a solid surface through an enzyme-linked reagent.

Experiment [13] addresses T6, human complement factor D purified from serum (human, UniProt P00746 26-253).
T6 construct: serum-purified (CompTech); also called hCFD-Comptech; CFD
The experiment is described as follows: SPR MX96.

In experiment [14] the target is T7, recombinant cynomolgus CFD, His-tagged (cynomolgus).
T7 construct: also called rcyCFD-His; recombinant Cyno-CFD
The experiment is described as follows: SPR MX96.

Experiment [15] concerns the target T8, recombinant human CFD, His-tagged (human, UniProt P00746 26-253).
T8 construct: also called rhCFD-His
Briefly: SPR MX96.

In experiment [16] the target is T5, recombinant human CFD mutant 1 (R157A, …). Briefly: SPR MX96.
Experiment [17] addresses T6, human complement factor D purified from ….
Experiment [18] has as its target T1, human Complement Factor D (serum …). Briefly: SPR (Biacore), conjugate captured on Protein A chip, serum purified human CFD as analyte, 25 degrees.
For experiment [19], the target named is T5, recombinant human CFD mutant 1 (R157A, …). The experiment is described as follows: ELISA. This is another data set of the same source.
In experiment [20] the target is T6, human complement factor D purified from …. This is another data set of the same source.
Experiment [21] has as its target T5, recombinant human CFD mutant 1 (R157A, …). The experiment is described as follows: ELISA, Mut1 Binding, Bin 3.
In experiment [22] the target is T4, human Complement Factor D (CFD), …. The experiment is described as follows: SPR MX96, mAbs amine-coupled, CFD injected.

T6 sequence (P00746 26-253): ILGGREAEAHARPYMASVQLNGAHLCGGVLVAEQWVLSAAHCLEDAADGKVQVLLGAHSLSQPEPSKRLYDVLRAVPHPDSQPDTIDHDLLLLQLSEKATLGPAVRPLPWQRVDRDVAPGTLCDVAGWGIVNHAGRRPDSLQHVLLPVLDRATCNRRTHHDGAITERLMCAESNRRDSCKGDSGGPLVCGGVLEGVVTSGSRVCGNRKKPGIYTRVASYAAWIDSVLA
T8 sequence (P00746 26-253 limits assumed): as the sequence (P00746 26-253) above
T4 sequence (P00746 26-253): as above
T2 sequence (P00746 26-253): as above
T1 sequence (P00746 26-253): as above
T5 sequence (P00746 26-253 R182A/R232A limits assumed): as the sequence (P00746 26-253) above, with R157A, R207A counted along it

B1: OG1965 (antibody, IgG1, V domains shown)
VH: EVQLVESGGGLVQPGGSLRLSCAASGYTFTDYYINWVRQAPGKGLEWIGDINPITGDTDYNADFKRRFTFSLDTSKSTAYLQMSSLRAEDTAVYYCTREGPSFAYWGQGTLVTVSS
VL: DIQLTQSPSSLSASVGDRVTITCRSSQTIVHSNGDTYLEWYQQKPGKAPNLLIRKVSNRFSGVPSRFSGSGSGTDFTLTISSLQPEDFATYYCFQGSHVPVTFGQGTKVEIKR
notes: also called 34I54I59D84S/54R101V; 34I54I59D84S (heavy) / 54R101V (light)
As for B1, the “EC50 (nM) in hemolysis assay (rabbit RBC, normal human serum)” value in experiment [1] is 1.74 nM. Besides, in experiment [2], the Kd worked out at 0.00586 nM and the kon was determined as 3.06e+07 M⁻¹ s⁻¹. In experiment [3], this molecule came in with a Kd of 0.0025 nM and a kon of 2.52e+07 M⁻¹ s⁻¹.

B2: 34I54I59D84S / 54R101V (antibody, human IgG1, V domains shown)
VH: EVQLVESGGGLVQPGGSLRLSCAASGYTFTDYYINWVRQAPGKGLEWIGDINPITGDTDYNADFKRRFTFSLDTSKSTAYLQMSSLRAEDTAVYYCTREGPSFAYWGQGTLVTVSS
VL: DIQLTQSPSSLSASVGDRVTITCRSSQTIVHSNGDTYLEWYQQKPGKAPNLLIRKVSNRFSGVPSRFSGSGSGTDFTLTISSLQPEDFATYYCFQGSHVPVTFGQGTKVEIKR
notes: Human IgG1 kappa; also called OG1965
In the case of B2, the Kd in [4] is 0.00437 nM; in [5], 0.00504 nM; in experiment [6] it was 0.00437 nM; in [7], 0.00504 nM; in experiment [8], 0.028 nM; in experiment [9], 0.00364 nM. In [10], this molecule had a Kd of 0.00956 nM. The koff in [4] stood at 9.02e-05 s⁻¹; in experiment [5] it was 0.000202 s⁻¹; in experiment [6], 9.02e-05 s⁻¹; in [7], 0.000202 s⁻¹; in [8], 0.000978 s⁻¹; in [9], 5.08e-05 s⁻¹. This molecule had a koff in experiment [10] of 0.000241 s⁻¹. The kon in experiment [4] is 2.06e+07 M⁻¹ s⁻¹; in experiment [5], 4e+07 M⁻¹ s⁻¹; in experiment [6], 2.06e+07 M⁻¹ s⁻¹; in experiment [7] it was 4e+07 M⁻¹ s⁻¹; in experiment [8], 3.49e+07 M⁻¹ s⁻¹; in experiment [9], 1.4e+07 M⁻¹ s⁻¹. The kon in experiment [10] worked out at 2.55e+07 M⁻¹ s⁻¹.

B3: KCD119 TAF (antibody, V domains shown)
VH: EVQLVESGGGLVQPGGSLRLSCAASGYTFTDYYMNWVRQAPGKGLEWIGDINPNTGDTSYNADFKRRFTFSLDTSKSTAYLQMNSLRAEDTAVYYCTREGPSFAYWGQGTLVTVSS
VL: DIQLTQSPSSLSASVGDRVTITCRSSQTIVHSNGDTYLEWYQQKPGKAPNLLIYKVSNRFSGVPSRFSGSGSGTDFTLTISSLQPEDFATYYCFQGSHVPPTFGQGTKVEIK
notes: full IgG captured on protein A; also called TAF KCD119; KCD119 CDRs grafted into the TAF framework
Regarding B3, in experiment [11], the Kd came to 0.23 nM.

B4: KCD070 (antibody, V domains shown)
VH: EIQLQQTGPELVKPGASVKISCKASGYSFTDYIILWVKQSHGKSLEWIGNINPYYDYTSYNLKFKGKATLTVDKSSSTAYMQLNSLTSEDSAVYYCARSDGYYGGDYWGQGTSVTVSS
VL: DIVMTQSHKFMSTSVGDRVSITCKASQDVGTAVAWYQQKPGQSPKLLIYWASTRHTGVPDRFTGSGSGTDFTLTINNVQSEDLADYFCQQYSSYPWTFGGGTTLEIK
notes: chimeric
Turning to B4, the “Mut1 Binding (% wt)” value in experiment [12] came to 84.6 % wt. The Kd in experiment [13] came out at 3.8 nM; in experiment [14], 4.9 nM; in [15], 3.3 nM; in experiment [16] it was 0.7 nM; in experiment [17] it was 1.77 nM.

B5: OG1970 (other)
heavy: EVQLVESGGGLVQPGGSLRLSCAASGYTFTDYYINWVRQAPGKGLEWIGDINPITGDTDYNADFKRRFTFSLDTSKSTAYLQMSSLRAEDTAVYYCTREGPSFAYWGQGTLVTVSSASTKGPSVFPLAPSSKSTSGGTAALGCLVKDYFPEPVTVSWNSGALTSGVHTFPAVLQSSGLYSLSSVVTVPSSSLGTQTYICNVNHKPSNTKVDKKVEPKSCDKTHTCPPCPAPEAAGAPSVFLFPPKPKDTLMISRTPEVTCVVVDVSHEDPEVKFNWYVDGVEVHNAKTKPREEQYNSTYRVVSVLTVLHQDWLNGKEYKCKVSNKALPAPIEKTISKAKGQPREPQVYTLPPSREEMTKNQVSLTCLVKGFYPSDIAVEWESNGQPENNYKTTPPVLDSDGSFFLYSKLTVDKSRWQQGNVFSCSVMHEALHNHYTQKSLSCSPGK
light: DIQLTQSPSSLSASVGDRVTITCRSSQTIVHSNGDTYLEWYQQKPGKAPNLLIRKVSNRFSGVPSRFSGSGSGTDFTLTISSLQPEDFATYYCFQGSHVPVTFGQGTKVEIKRTVAAPSVFIFPPSDEQLKSGTASVVCLLNNFYPREAKVQWKVDNALQSGNSQESVTEQDSKDSTYSLSSTLTLSKADYEKHKVYACEVTHQGLSSPVTKSFNRGEC
modifications: polymer OG1802 (9-arm HEMA-PC polymer, about 750-800 kDa, maleimide) bonded through the sulfhydryl of C443 (EU numbering; 442C in SEQ ID NO: 183), on one of the heavy chains
notes: Antibody-polymer conjugate: decapped OG1965 conjugated to polymer OG1802; The stoichiometry of antibody to polymer is described as 1:1; also called OG1965 bioconjugate; OG1965 conjugated to polymer OG1802
As for B5, the “EC50 (nM) in hemolysis assay (rabbit RBC, normal human serum)” value in experiment [1] turned out to be 1.65 nM. In [2], binding was characterised by a dissociation constant (Kd) of 0.00807 nM and the kon was found to be 3.67e+07 M⁻¹ s⁻¹. Further, in experiment [18], the Kd was determined as 0.00614 nM and the kon came to 2.16e+07 M⁻¹ s⁻¹.

B6: KCD009 (antibody, V domains shown)
VH: QIQLVQSGPELKKPGETVKISCKASGYIFRNYGMNWVKQGPGKGLKWMGWINTYTGEPTYADDFKGRFAFSLETSASTAYLQISNLKNEDTATYFCVRDGPGFAYWGQGTLVTVSA
VL: DVLMTQTPLSLPVSLGDQASISCRSSLIIEHSDGNTYLEWYLQKPGQSPKLLIYKVSNRFSGVPDRFSGSGSGTDFTLKISRVEADDLGVYYCFQGSHVPVTFGAGTNLELK
notes: chimeric
In the case of B6, the “Mut1 Binding (% wt)” value in experiment [19] came to 5.15 % wt. Also, the Kd came to 5.6 nM in [13], 9.9 nM in experiment [14], 4 nM in experiment [15] and 3.47 nM in [20]. Besides, the binding result in experiment [21] is “no binding”.

B7: KCD119 (antibody, V domains shown)
VH: EVQLQQSGPELVKPGASVKISCKASGYTFTDYYTNWMRQRHGESLEWIGDINPNTGDTSYNQKFRVKATLTVDKSSGTAYMGLRSLTSEDSAVYYCTREGPSFAYWGQGTLVTVSA
VL: DVLMTQTPLSLPVSLGDQASISCRSSQTIVHSNGDTYLEWYLQKPGQSPNLLIYKVSNRFSGVPDRFSGSGSGTDFTLKISRVEAEDLGVYYCFQGSHVPPTFGGGTTLEIK
notes: mouse variable domains; full IgG, captured on protein A; also called KCD119-mouse monoclonal antibody; Mouse KCD119
For B7, the Kd in experiment [22] is 0.375 nM and 0.857 nM; in experiment [11] it was 0.04 nM.

B8: KCD048 (antibody, V domains shown)
VH: EVQLQQSGADLVKPGASVKLSCTASGFNIKATYMHWVRQRPEKGLEWIGRIDPANGHTIYDPQFQGKATITSDTSSNTAYLQLNSLTSEDTAVYYCAEAMDYWGQGTSVTVSS
VL: QIVLTQSPAIMSASPGEKVTLTCSATSSVSYMYWYQQKPGSSPRLLIYDTSNLASGVPVRFSGSGSGTSYSLTISRMEAEDDATYYCQQWSNYPFTFGGGTKLEIK
notes: chimeric
Consider B8, for which, in experiment [12], the “Mut1 Binding (% wt)” value was found to be 62.3 % wt. In addition, the Kd in [13] amounted to 1.9 nM; in [14] it was 21 nM; in experiment [16] it was 0.83 nM; in experiment [17], 0.997 nM.

B9: KCD023 (antibody, V domains shown)
VH: EVLLQQSGPELVKPGASVKIPCKASGYTFTDYNIDWVKQSHGKSLEWIGDINPNNGGINYNQKFKGKATLTVDKSSSTAYMELRSLTSEDTAVYYCGTGDYAYWGQGTLVTVSA
VL: QIVLTQSPAFMSASPGEKVTLTCSASSSVSSSYLYWYQQKPGSSPKLWIYSTSNLASGVPGRFSGSGSGTSYSLTISSMEAEDAASYFCHQWTSYPPTFGAGTKLELK
notes: chimeric
In the case of B9, the “Mut1 Binding (% wt)” value in experiment [19] turned out to be 7.64 % wt. For the same molecule, the Kd in experiment [13] was 5.3 nM; in [14], 6 nM; in experiment [15], 4.1 nM; in [20] it was 1770 nM. In addition, the binding result in experiment [21] is “no binding”.
